Test results: patent US20140227262A1, “PD-1 Antagonists and Methods for Treating Infectious Disease” (AMPLIMMUNE, INC., priority 2008, published 2014)

How the values were obtained:
[1] = molecular target: T1, recombinant human PD-1/Fc (Homo sapiens, UniProt Q15116); assay: PD-1 binding ELISA, human B7-DC-Ig; conditions: four different lots, FIG. 1A
T1 construct: Fc (immunoglobulin Fc fusion partner); purchased R&D Systems
Description: (§1) 96-well ELISA plates were coated with 100 μL 0.75 ug/mL recombinant human PD-1/Fc (R&D Systems) diluted in BupH Carbonate/Bicarbonate pH 9.4 buffer (Pierce) for 2 hours and then blocked with BSA solution (Jackson ImmunoResearch) for 90-120 minutes. […] Absorbance at 450 nm was read using a plate reader (Molecular Devices) and data were analyzed in SoftMax using a 4-parameter logistic fit.

[2] = test system: CT26 colorectal tumor cells; assay: Established CT26 colorectal tumor model; conditions: 100 mg/kg cyclophosphamide on day 10, alone
Description: Balb/C mice at age of 9 to 11 weeks were implanted subcutaneously with 1.0×10^5 CT26 colorectal tumor cells.

[3] = molecular target: T2, recombinant mouse PD-1/Fc (Mus musculus, UniProt Q02242); assay: PD-1 binding ELISA, murine B7-DC-Ig; conditions: FIG. 1B
T2 construct: Fc (immunoglobulin Fc fusion partner); purchased R&D Systems
Description: as §1, with “mouse” for “human”, “(Candor-Bioscience)” for “(Jackson ImmunoResearch)”, “90” for “90-120”

T2 sequence (Q02242 with tags, fused parts or gaps limits assumed): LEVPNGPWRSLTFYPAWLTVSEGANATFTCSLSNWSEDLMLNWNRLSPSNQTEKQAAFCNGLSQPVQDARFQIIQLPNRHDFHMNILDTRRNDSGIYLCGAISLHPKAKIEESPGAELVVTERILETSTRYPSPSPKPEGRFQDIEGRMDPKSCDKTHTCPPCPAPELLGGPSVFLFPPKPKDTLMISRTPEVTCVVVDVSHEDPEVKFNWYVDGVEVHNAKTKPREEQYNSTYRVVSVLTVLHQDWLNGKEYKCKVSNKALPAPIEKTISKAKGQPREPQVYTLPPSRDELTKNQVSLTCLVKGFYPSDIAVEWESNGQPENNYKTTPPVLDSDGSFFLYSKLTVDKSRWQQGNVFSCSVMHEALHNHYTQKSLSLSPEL
T1 sequence (Q15116 with tags, fused parts or gaps limits assumed): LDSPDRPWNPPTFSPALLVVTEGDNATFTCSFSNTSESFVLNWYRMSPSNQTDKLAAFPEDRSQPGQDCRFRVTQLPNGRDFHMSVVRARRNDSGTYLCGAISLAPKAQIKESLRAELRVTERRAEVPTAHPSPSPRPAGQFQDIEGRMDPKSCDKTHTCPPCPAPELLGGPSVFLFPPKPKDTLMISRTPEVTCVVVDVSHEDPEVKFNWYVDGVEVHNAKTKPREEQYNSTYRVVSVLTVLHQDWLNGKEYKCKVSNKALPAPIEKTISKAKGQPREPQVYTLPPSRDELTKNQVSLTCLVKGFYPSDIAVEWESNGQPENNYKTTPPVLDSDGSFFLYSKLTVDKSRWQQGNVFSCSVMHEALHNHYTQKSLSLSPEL

Row | binding to PD-1 in PD-1 binding ELISA (OD450) [3] | Molecule | also measured
1 | reduced binding to PD-1 | D111S: murine B7-DC-Ig with the D111S substitution (protein) LFTVTAPKEVYTVDVGSSVSLECDFDRRECTELEGIRASLQKVENDTSLQSERATLLEEQLPLGKALFHIPSVQVRDSGQYRCLVICGAAWSYKYLTVKVKASYMRIDTRILEVPGTGEVQLTCQARGYPLAEVSWQNVSVPANTSHIRTPEGLYQVTSVLRLKPQPSRNFSCMFWNAHMKELTSAIIDPLSRMEPKVPRTWEPRGPTIKPCPPCKCPAPNLLGGPSVFIFPPKIKDVLMISLSPIVTCVVVDVSEDDPDVQISWFVNNVEVHTAQTQTHREDYNSTLRVVSALPIQHQDWMSGKEFKCKVNNKDLPAPIERTISKPKGSVRAPQVYVLPPPEEEMTKKQVTLTCMVTDFMPEDIYVEWTNNGKTELNYKNTEPVLDSDGSYFMYSKLRVEKKNWVERNSYSCSVVHEGLHNHHTTKSFSRTPGK | 
2 | reduced binding to PD-1 | K113S: murine B7-DC-Ig with the K113S substitution (protein) LFTVTAPKEVYTVDVGSSVSLECDFDRRECTELEGIRASLQKVENDTSLQSERATLLEEQLPLGKALFHIPSVQVRDSGQYRCLVICGAAWDYSYLTVKVKASYMRIDTRILEVPGTGEVQLTCQARGYPLAEVSWQNVSVPANTSHIRTPEGLYQVTSVLRLKPQPSRNFSCMFWNAHMKELTSAIIDPLSRMEPKVPRTWEPRGPTIKPCPPCKCPAPNLLGGPSVFIFPPKIKDVLMISLSPIVTCVVVDVSEDDPDVQISWFVNNVEVHTAQTQTHREDYNSTLRVVSALPIQHQDWMSGKEFKCKVNNKDLPAPIERTISKPKGSVRAPQVYVLPPPEEEMTKKQVTLTCMVTDFMPEDIYVEWTNNGKTELNYKNTEPVLDSDGSYFMYSKLRVEKKNWVERNSYSCSVVHEGLHNHHTTKSFSRTPGK | 

The next lines start with the molecule.

Row | Molecule | binding to PD-1 in PD-1 binding ELISA (OD450) [3] | also measured
3 | human B7-DC-Ig: human PD-L2 (B7-DC) fusion protein; representative sequence SEQ ID NO: 56/57 |  | binding to PD-1 in PD-1 binding ELISA (OD450) [1]: binding to PD-1
4 | O=P1(N(CCCl)CCCl)NCCCO1 (centres unmarked) [CTX, cyclophosphamide] |  | outcome of tumor-bearing mice (death or euthanasia) [2]: died as a result of tumor growth or were euthanized
5 | wild type murine B7-DC-Ig: murine PD-L2 (B7-DC) fusion protein; representative sequence SEQ ID NO: 53/54 (protein, listed as Mus musculus) MLLLLPILNLSLQLHPVAALFTVTAPKEVYTVDVGSSVSLECDFDRRECTELEGIRASLQKVENDTSLQSERATLLEEQLPLGKALFHIPSVQVRDSGQYRCLVICGAAWDYKYLTVKVKASYMRIDTRILEVPGTGEVQLTCQARGYPLAEVSWQNVSVPANTSHIRTPEGLYQVTSVLRLKPQPSRNFSCMFWNAHMKELTSAIIDPLSRMEPKVPRTWEPRGPTIKPCPPCKCPAPNLLGGPSVFIFPPKIKDVLMISLSPIVTCVVVDVSEDDPDVQISWFVNNVEVHTAQTQTHREDYNSTLRVVSALPIQHQDWMSGKEFKCKVNNKDLPAPIERTISKPKGSVRAPQVYVLPPPEEEMTKKQVTLTCMVTDFMPEDIYVEWTNNGKTELNYKNTEPVLDSDGSYFMYSKLRVEKKNWVERNSYSCSVVHEGLHNHHTTKSFSRTPGK | binding to PD-1 | 
